Source: US20260258410
pKd: −log10 of the molar value.

System: T1, ADAR2 R2D E488Q (dsRBD2 + deaminase domain) E488Q (Homo sapiens), P78563-2
T1 sequence: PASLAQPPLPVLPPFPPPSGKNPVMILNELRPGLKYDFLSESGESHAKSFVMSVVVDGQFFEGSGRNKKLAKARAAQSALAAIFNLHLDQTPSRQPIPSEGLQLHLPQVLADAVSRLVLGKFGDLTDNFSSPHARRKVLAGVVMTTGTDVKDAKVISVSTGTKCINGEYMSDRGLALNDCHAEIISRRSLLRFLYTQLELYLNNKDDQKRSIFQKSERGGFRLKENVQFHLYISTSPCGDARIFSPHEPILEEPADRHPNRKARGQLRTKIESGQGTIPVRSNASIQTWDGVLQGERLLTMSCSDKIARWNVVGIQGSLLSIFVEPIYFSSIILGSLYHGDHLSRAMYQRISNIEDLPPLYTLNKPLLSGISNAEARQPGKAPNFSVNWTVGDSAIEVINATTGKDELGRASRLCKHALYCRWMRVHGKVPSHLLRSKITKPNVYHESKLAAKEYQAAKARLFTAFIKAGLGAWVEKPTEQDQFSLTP
Assay: EMSA
Conditions: 8-azanebularine at position 13 of SEQ 7; protein 0.25-256 nM

With “GCUCGCGAUGCGNGAGGGCUCUGAUAGCUACG / CGUAGCUAUCAGAGCCCCCCGGCAUCGCGAGC [32 bp GLI1 GG RNA with 8-azanebularine]” the pKd was 8.22.
